Assay results taken from article PMC8260793, “A split protease-E. coli ClpXP system quantifies protein–protein interactions in Escherichia coli cells” (Communications Biology, 2021).

What was measured:
[1] = molecular target: Csy4 of Z. mobilis Type I-F CRISPR/Cas complex (Zymomonas mobilis); assay: split reporter (BiFC, NanoBiT); SPEC profiling of CRISPR/Cas effectors and Cas3 / Cas2-3 mutants in E. coli cells; sfGFP fluorescence by flow cytometry; interaction intensity normalized to cells expressing wt HRV 3 C protease
[2] = molecular target: Csy3 of Z. mobilis Type I-F CRISPR/Cas complex (Zymomonas mobilis); assay: as above
[3] = molecular target: Csy2 of Z. mobilis Type I-F CRISPR/Cas complex (Zymomonas mobilis); assay: as above
[4] = molecular target: Csy1 of Z. mobilis Type I-F CRISPR/Cas complex (Zymomonas mobilis); assay: as above
[5] = molecular target: Cas1 of Z. mobilis Type I-F CRISPR/Cas complex (Zymomonas mobilis); assay: as above
[6] = molecular target: Cas1 of Z. mobilis Type I-F CRISPR/Cas complex; assay: SPEC system (split protease-E. coli ClpXP) in E. coli cells; conditions: parent: 100; read off a plot
[7] = molecular target: Csy4 of Z. mobilis Type I-F CRISPR/Cas complex; assay: as above; conditions: parent: 100; read off a plot
[8] = molecular target: Csy3 of Z. mobilis Type I-F CRISPR/Cas complex; assay: as above; conditions: parent: 100; read off a plot
[9] = molecular target: Csy2 of Z. mobilis Type I-F CRISPR/Cas complex; assay: as above; conditions: parent: 100; read off a plot
[10] = molecular target: T1, Cas7 of E. coli K12 Type I-E CRISPR/Cas complex (E. coli K12, UniProt Q46899 1-363); assay: split reporter (BiFC, NanoBiT); SPEC profiling of CRISPR/Cas effectors and Cas3 / Cas2-3 mutants in E. coli cells; sfGFP fluorescence by flow cytometry; interaction intensity normalized to cells expressing wt HRV 3 C protease; conditions: partners not purified
T1 construct: Cas7, effector of the type I-E CRISPR/Cas complex of E. coli K12; source: E. coli BL21(DE3) or BL21(DE3)-SPEC, expressed in the cells (IPTG induction)
T1 sequence (looked up): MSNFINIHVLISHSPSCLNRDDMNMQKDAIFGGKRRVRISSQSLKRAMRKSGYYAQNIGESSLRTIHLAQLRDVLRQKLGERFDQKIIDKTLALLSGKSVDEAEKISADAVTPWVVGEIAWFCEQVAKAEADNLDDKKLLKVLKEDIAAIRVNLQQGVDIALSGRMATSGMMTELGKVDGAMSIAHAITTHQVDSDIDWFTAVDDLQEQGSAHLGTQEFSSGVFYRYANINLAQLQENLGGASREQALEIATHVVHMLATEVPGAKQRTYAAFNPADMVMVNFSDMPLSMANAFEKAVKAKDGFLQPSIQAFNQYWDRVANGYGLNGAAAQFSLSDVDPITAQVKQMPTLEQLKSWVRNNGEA

[11] = molecular target: T2, Cas11 of E. coli K12 Type I-E CRISPR/Cas complex (E. coli K12, UniProt P76632 1-160); assay: as above; conditions: partners not purified
T2 construct: Cas11, effector of the type I-E CRISPR/Cas complex of E. coli K12; source: E. coli BL21(DE3) or BL21(DE3)-SPEC, expressed in the cells (IPTG induction)
T2 sequence (looked up): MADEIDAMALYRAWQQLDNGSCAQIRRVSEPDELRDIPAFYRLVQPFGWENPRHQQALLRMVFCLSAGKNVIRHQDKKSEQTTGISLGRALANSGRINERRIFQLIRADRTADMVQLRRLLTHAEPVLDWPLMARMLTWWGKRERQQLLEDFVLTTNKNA

[12] = molecular target: T3, Cas2 of E. coli K12 Type I-E CRISPR/Cas complex (E. coli K12, UniProt P45956 1-94); assay: as above; conditions: partners not purified
T3 construct: Cas2, effector of the type I-E CRISPR/Cas complex of E. coli K12; source: E. coli BL21(DE3) or BL21(DE3)-SPEC, expressed in the cells (IPTG induction)
T3 sequence (looked up): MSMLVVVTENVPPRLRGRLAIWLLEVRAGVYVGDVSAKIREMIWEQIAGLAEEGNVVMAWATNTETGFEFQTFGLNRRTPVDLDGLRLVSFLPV

[13] = molecular target: T4, Cas5 of E. coli K12 Type I-E CRISPR/Cas complex (E. coli K12, UniProt Q46898 1-224); assay: as above; conditions: partners not purified
T4 construct: Cas5, effector of the type I-E CRISPR/Cas complex of E. coli K12; source: E. coli BL21(DE3) or BL21(DE3)-SPEC, expressed in the cells (IPTG induction)
T4 sequence (looked up): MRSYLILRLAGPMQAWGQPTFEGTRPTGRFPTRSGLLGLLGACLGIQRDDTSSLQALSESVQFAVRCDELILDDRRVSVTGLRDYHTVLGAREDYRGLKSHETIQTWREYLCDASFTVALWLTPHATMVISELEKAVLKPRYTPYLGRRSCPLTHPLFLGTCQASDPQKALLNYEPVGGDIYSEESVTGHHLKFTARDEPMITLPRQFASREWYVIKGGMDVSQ

Cas1 of Z. mobilis Type I-F CRISPR/Cas complex (natural protein)
normalized interaction intensity [1]: > 80%
normalized interaction intensity [2]: 14%
normalized interaction intensity [3]: > 80%

Cas2-3 D124A (Z. mobilis Type I-F) (natural protein)
increase of the interaction over Cas2-3 wild type [4]: > 40%

Cas2-3 D608N (Z. mobilis Type I-F) (natural protein)
increase of the interaction over Cas2-3 wild type [4]: > 40%

Cas2-3 H123A (Z. mobilis Type I-F) (natural protein)
increase of the interaction over Cas2-3 wild type [4]: > 40%

Cas2-3 K127A (Z. mobilis Type I-F) (natural protein)
normalized interaction intensity [3]: 21%
normalized interaction intensity [4]: 10%

Cas2-3 K458N (Z. mobilis Type I-F) (natural protein)
increase of the interaction over Cas2-3 wild type [4]: > 40%

Cas2-3 S639A/T641A (Z. mobilis Type I-F) (natural protein)
increase of the interaction over Cas2-3 wild type [4]: > 40%

Cas2-3 of Z. mobilis Type I-F CRISPR/Cas complex (natural protein)
normalized interaction intensity [1]: > 80%
normalized interaction intensity [2]: > 80%
normalized interaction intensity [3]: 88%
normalized interaction intensity [5]: 99%
normalized interaction intensity [4]: 63%

Cas2-3 of Z. mobilis Type I-F CRISPR/Cas complex D124A
percent of parent [6]: 95%
percent of parent [7]: 110%
percent of parent [8]: 110%

Cas2-3 of Z. mobilis Type I-F CRISPR/Cas complex D608N
percent of parent [9]: 78%
percent of parent [7]: 110%
percent of parent [8]: 110%

Cas2-3 of Z. mobilis Type I-F CRISPR/Cas complex H123A
percent of parent [7]: 110%
percent of parent [8]: 110%

Cas2-3 of Z. mobilis Type I-F CRISPR/Cas complex K127A
percent of parent [7]: 110%
percent of parent [8]: 110%

Cas2-3 of Z. mobilis Type I-F CRISPR/Cas complex K458N
percent of parent [6]: 97%
percent of parent [9]: 110%
percent of parent [7]: 110%
percent of parent [8]: 120%

Cas2-3 of Z. mobilis Type I-F CRISPR/Cas complex S639A; T641A
percent of parent [9]: 110%
percent of parent [7]: 110%
percent of parent [8]: 110%

Csy1 of Z. mobilis Type I-F CRISPR/Cas complex (natural protein)
normalized interaction intensity [1]: > 80%
normalized interaction intensity [3]: > 80%

B1: Cas6 of E. coli K12 Type I-E CRISPR/Cas complex (natural protein, UniProt Q46897 1-199, looked up)
chain: MYLSKVIIARAWSRDLYQLHQGLWHLFPNRPDAARDFLFHVEKRNTPEGCHVLLQSAQMPVSTAVATVIKTKQVEFQLQVGVPLYFRLRANPIKTILDNQKRLDSKGNIKRCRVPLIKEAEQIAWLQRKLGNAARVEDVHPISERPQYFSGDGKSGKIQTVCFEGVLTINDAPALIDLVQQGIGPAKSMGCGLLSLAPL
notes: Cas6, effector of the type I-E CRISPR/Cas complex of E. coli K12; source: E. coli BL21(DE3) or BL21(DE3)-SPEC, expressed in the cells (IPTG induction)
normalized interaction intensity [10]: > 80%

B2: Cas1 of E. coli K12 Type I-E CRISPR/Cas complex (natural protein, UniProt Q46896 1-305, looked up)
chain: MTWLPLNPIPLKDRVSMIFLQYGQIDVIDGAFVLIDKTGIRTHIPVGSVACIMLEPGTRVSHAAVRLAAQVGTLLVWVGEAGVRVYASGQPGGARSDKLLYQAKLALDEDLRLKVVRKMFELRFGEPAPARRSVEQLRGIEGSRVRATYALLAKQYGVTWNGRRYDPKDWEKGDTINQCISAATSCLYGVTEAAILAAGYAPAIGFVHTGKPLSFVYDIADIIKFDTVVPKAFEIARRNPGEPDREVRLACRDIFRSSKTLAKLIPLIEDVLAAGEIQPPAPPEDAQPVAIPLPVSLGDAGHRSS
notes: Cas1, effector of the type I-E CRISPR/Cas complex of E. coli K12; source: E. coli BL21(DE3) or BL21(DE3)-SPEC, expressed in the cells (IPTG induction)
normalized interaction intensity [11]: > 80%
normalized interaction intensity [12]: 92%
normalized interaction intensity [13]: > 80%

B3: Cas3 of E. coli K12 Type I-E CRISPR/Cas complex (natural protein, UniProt P38036 1-888, looked up)
chain: MEPFKYICHYWGKSSKSLTKGNDIHLLIYHCLDVAAVADCWWDQSVVLQNTFCRNEMLSKQRVKAWLLFFIALHDIGKFDIRFQYKSAESWLKLNPATPSLNGPSTQMCRKFNHGAAGLYWFNQDSLSEQSLGDFFSFFDAAPHPYESWFPWVEAVTGHHGFILHSQDQDKSRWEMPASLASYAAQDKQAREEWISVLEALFLTPAGLSINDIPPDCSSLLAGFCSLADWLGSWTTTNTFLFNEDAPSDINALRTYFQDRQQDASRVLELSGLVSNKRCYEGVHALLDNGYQPRQLQVLVDALPVAPGLTVIEAPTGSGKTETALAYAWKLIDQQIADSVIFALPTQATANAMLTRMEASASHLFSSPNLILAHGNSRFNHLFQSIKSRAITEQGQEEAWVQCCQWLSQSNKKVFLGQIGVCTIDQVLISVLPVKHRFIRGLGIGRSVLIVDEVHAYDTYMNGLLEAVLKAQADVGGSVILLSATLPMKQKQKLLDTYGLHTDPVENNSAYPLINWRGVNGAQRFDLLAHPEQLPPRFSIQPEPICLADMLPDLTMLERMIAAANAGAQVCLICNLVDVAQVCYQRLKELNNTQVDIDLFHARFTLNDRREKENRVISNFGKNGKRNVGRILVATQVVEQSLDVDFDWLITQHCPADLLFQRLGRLHRHHRKYRPAGFEIPVATILLPDGEGYGRHEHIYSNVRVMWRTQQHIEELNGASLFFPDAYRQWLDSIYDDAEMDEPEWVGNGMDKFESAECEKRFKARKVLQWAEEYSLQDNDETILAVTRDGEMSLPLLPYVQTSSGKQLLDGQVYEDLSHEQQYEALALNRVNVPFTWKRSFSEVVDEDGLLWLEGKQNLDGWVWQGNSIVITYTGDEGMTRVIPANPK
notes: Cas3, effector of the type I-E CRISPR/Cas complex of E. coli K12; source: E. coli BL21(DE3) or BL21(DE3)-SPEC, expressed in the cells (IPTG induction)
normalized interaction intensity [12]: 56%
normalized interaction intensity [13]: > 80%
